Results taken from the supplement of paper PMC10567573.

B1: DLC1 (parent)
chain: KRSWEEHVTHWMGQPFNSDDRNTA
B2: ARL6IP1 (parent)
chain: YLDPSVLSGVSCFVMFLCLADYLV

Variants of: B1
Assay: protein stability index of a GFP-peptide fusion (GPS, HEK-293T) (PSI 1-6); higher = more stable
Settings: c terminus: a fixed tail appended
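Further: lentivirally expressed fusions sorted by FACS into six bins by GFP to DsRed ratio, PSI derived from sequencing read proportions per bin multiplied by bin number.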

Protein stability index, by site and new letter:
N22: V 2.49, K 3.02, E 2.56, R 2.53, H 2.04, C 1.94, I 2.12, A 1.81, D 2.59, T 2.29, M 2.28, L 2.06, P 2.73, G 2.81, W 1.7, Q 2.67, S 2.74, Y 2.09, F 2.04
D19: Y 1.43, T 2.4, W 2.64, V 1.97, S 2.6
D20: N 2.59, G 2.43, F 2.29, E 2.87, M 1.91, Q 3.05, Y 1.77, R 2.66, K 2.51, C 2.19, V 2.02, L 2.48, W 1.59, A 3.41, T 2.75, P 2.76, H 2.48, S 1.91, I 2.54
A24: T 2.43, S 2.67, L 2.89, N 2.23, Y 1.72, R 2.86, G 2.97, F 2.37, W 2.6, E 3.59, Q 3.18, P 2.92, C 2.32, H 2.9, K 3.54, V 3.28, M 2.09, D 2.82, I 2.81
T23: M 1.73, E 2.73, D 3.26, S 2.26, N 2.74, H 2.23, V 2.13, F 2.13, I 2.35, C 3.51, R 2.65, G 2.69, W 1.79, Q 3.27, A 2.22, L 2.08, K 2.74, Y 2.16, P 2.46
R21: H 2.47, Q 3.07, K 3.32, W 2.92, D 2.89, C 2.85, N 3.91, G 3.17, P 2.6, I 2.61, L 3.36, F 1.95, E 2.99, M 2.27, T 3.08, A 2.64, V 3.31, Y 2.55, S 2.9

Variants of: B2
Assay: as above
Settings: c terminus: a fixed tail appended

Protein stability index, by site and new letter:
M15: G 4.04, H 3.49, F 2.3, V 2.38, C 3.3, K 3.66, L 2.76, D 2.69, W 2.93, S 2.79, I 4.76, N 2.88, R 2.59, T 3.04
C12: V 3.66, G 3.53, A 3.07, Y 2.47, L 2.45, T 2.24, Q 4.12, P 3.54, M 2.56, F 2.47, S 1.48, D 3.35, W 2.26
V6: D 2.36, R 2.76, A 1.44, Q 2.64, I 3.23, T 2.39, C 3.38, N 3.08, S 2.79, K 2.51, Y 2.66
A20: H 2.64, T 4.15, W 2.47, C 3.26, I 1.85, N 3.34, K 3.71, F 2.87, V 1.63
F16: G 2.14, R 3.63, A 1.99, K 1.74, W 2.85, N 2.88, P 2.64, V 3.72, L 2.62
F13: Y 3.73, T 4.33, W 3.83, A 3.86, Q 3.58, N 2.42, K 2.38, C 2.92, I 2.81, D 2.64
L19: T 2.74, E 3.85, M 2.06, S 3.89, D 2.98, C 4.14, A 2.42, F 2.56, R 2.38, Y 1.85, Q 2.06, H 3.03, P 2.1, W 1.73, K 2.81, N 2.57
L2: D 3.95, A 2.29, C 2.99, H 2.67, K 3.31, R 2.5, I 1.63, F 3, P 2.76, Y 2.35, N 2.5, T 3.75, Q 2.09, E 3.04
V10: N 3.52, E 2.67, K 2.46, A 3.22, Q 2.89, L 2.97, F 3.19, C 2.61, P 3.06, M 2.44, D 2.93, Y 2.38, W 2.21, T 1.56, H 2.26, S 3.4, I 3.18
S8: R 2.95, H 3.58, I 2.96, G 3.79, L 3.77, N 3.35, M 2.26, V 3.82, C 3.59, F 3.22, T 2.79
D3: S 2.72, T 2.59, P 3.06, E 1.94, Y 2.54, A 5.08, H 1.69, V 2.91, N 3.7, Q 3.57, I 2.83, R 3.64
S5: I 3.61, R 3.56, G 3.63, H 3.5, K 3.47, N 2.26, L 3.09, P 3.19, M 3.03, D 3.07
S11: H 2.62, V 4.17, E 4.25, C 3.23, Y 3.78, F 2.24, P 3.52, G 3.42
V14: L 2.1, T 2.04, P 3.67, R 1.65, W 2.15, M 3.79, G 2.85, A 2.62, S 2.83, E 2.54, H 2.06, K 1.98, F 2.09
L17: H 2.4, T 3.26, V 2.2, F 2.82, R 2.54, S 1.35, A 2.34, M 4.66, W 3.18, K 3.75, D 2.49, G 4.55
P4: L 2.76, I 2.66, M 3.45, K 2.63, G 3.42, C 3.21, D 3.12, N 2.9, V 3.33
G9: T 3.03, V 3.3, E 2.77, F 3.27, Y 2.81, H 3.27, R 2.5, S 2.12, A 3.74, K 2.49, P 2.66, N 4.26, L 3.4, Q 3.72
L7: S 3.62, M 2.98, H 3.82, V 3.69, Y 2.89, C 1.88, Q 4, P 2.4, N 2.74, T 2.8, A 3.11
C18: V 2.09, F 3.35, T 3.26, H 2.85, N 2.68, Y 1.96, R 2.65, A 1.91, G 2.47, Q 2.01, L 3.54, K 2.37
Y1: M 3.37, I 2.63, H 3.89, V 2.9, D 2.61, R 2.81, A 1.59, C 3.1, N 4.11
